# B1: Q9UM07 (protein)
# chain: MAQGTLIRVTPEQPTHAVCVLGTLTQLDICSSAPEDCTSFSINASPGVVVDIAHGPPAKKKSTGSSTWPLDPGVEVTLTMKVASGSTGDQKVQISYYGPKTPPVKALLYLTGVEISLCADITRTGKVKPTRAVKDQRTWTWGPCGQGAILLVNCDRDNLESSAMDCEDDEVLDSEDLQDMSLMTLSTKTPKDFFTNHTLVLHVARSEMDKVRVFQATRGKLSSKCSVVLGPKWPSHYLMVPGGKHNMDFYVEALAFPDTDFPGLITLTISLLDTSNLELPEAVVFQDSVVFRVAPWIMTPNTQPPQEVYACSIFENEDFLKSVTTLAMKAKCKLTICPEEENMDDQWMQDEMEIGYIQAPHKTLPVVFDSPRNRGLKEFPIKRVMGPDFGYVTRGPQTGGISGLDSFGNLEVSPPVTVRGKEYPLGRILFGDSCYPSNDSRQMHQALQDFLSAQQVQAPVKLYSDWLSVGHVDEFLSFVPAPDRKGFRLLLASPRSCYKL
# B2: Q16610 (protein)
# chain: MGTTARAALVLTYLAVASAASEGGFTATGQRQLRPEHFQEVGYAAPPSPPLSRSLPMDHPDSSQHGPPFEGQSQVQPPPSQEATPLQQEKLLPAQLPAEKEVGPPLPQEAVPLQKELPSLQHPNEQKEGTPAPFGDQSHPEPESWNAAQHCQQDRSQGGWGHRLDGFPPGRPSPDNLNQICLPNRQHVVYGPWNLPQSSYSHLTRQGETLNFLEIGYSRCCHCRSHTNRLECAKLVWEEAMSRFCEAEFSVKTRPHWCCTRQGEARFSCFQEEAPQPHYQLRACPSHQPDISSGLELPFPPGVPTLDNIKNICHLRRFRSVPRNLPATDPLQRELLALIQLEREFQRCCRQGNNHTCTWKAWEDTLDKYCDREYAVKTHHHLCCRHPPSPTRDECFARRAPYPNYDRDILTIDIGRVTPNLMGHLCGNQRVLTKHKHIPGLIHNMTARCCDLPFPEQACCAEEEKLTFINDLCGPRRNIWRDPALCCYLSPGDEQVNCFN
# B3: Q9NSB2 (protein)
# chain: MSCRSYRVSSGHRVGNFSSCSAMTPQNLNRFRANSVSCWSGPGFRGLGSFGSRSVITFGSYSPRIAAVGSRPIHCGVRFGAGCGMGFGDGRGVGLGPRADSCVGLGFGAGSGIGYGFGGPGFGYRVGGVGVPAAPSITAVTVNKSLLTPLNLEIDPNAQRVKKDEKEQIKTLNNKFASFIDKVRFLEQQNKLLETKWSFLQEQKCIRSNLEPLFESYITNLRRQLEVLVSDQARLQAERNHLQDVLEGFKKKYEEEVVCRANAENEFVALKKDVDAAFMNKSDLEANVDTLTQEIDFLKTLYMEEIQLLQSHISETSVIVKMDNSRDLNLDGIIAEVKAQYEEVARRSRADAEAWYQTKYEEMQVTAGQHCDNLRNIRNEINELTRLIQRLKAEIEHAKAQRAKLEAAVAEAEQQGEATLSDAKCKLADLECALQQAKQDMARQLCEYQELMNAKLGLDIEIATYRRLLEGEESRLCEGVGPVNISVSSSRGGLVCGPEP
# B4: P04003 (protein, UniProt P04003 1-597, looked up)
# chain: MHPPKTPSGALHRKRKMAAWPFSRLWKVSDPILFQMTLIAALLPAVLGNCGPPPTLSFAAPMDITLTETRFKTGTTLKYTCLPGYVRSHSTQTLTCNSDGEWVYNTFCIYKRCRHPGELRNGQVEIKTDLSFGSQIEFSCSEGFFLIGSTTSRCEVQDRGVGWSHPLPQCEIVKCKPPPDIRNGRHSGEENFYAYGFSVTYSCDPRFSLLGHASISCTVENETIGVWRPSPPTCEKITCRKPDVSHGEMVSGFGPIYNYKDTIVFKCQKGFVLRGSSVIHCDADSKWNPSPPACEPNSCINLPDIPHASWETYPRPTKEDVYVVGTVLRYRCHPGYKPTTDEPTTVICQKNLRWTPYQGCEALCCPEPKLNNGEITQHRKSRPANHCVYFYGDEISFSCHETSRFSAICQGDGTWSPRTPSCGDICNFPPKIAHGHYKQSSSYSFFKEEIIYECDKGYILVGQAKLSCSYSHWSAPAPQCKALCRKPELVNGRLSVDKDQYVEPENVTIQCDSGYGVVGPQSITCSGNRTWYPEVPKCEWETPEGCEQVLTGKRLMQCLPNPEDVKMALEVYKLSLEIEQLELQRDSARQSTLDKEL
# modifications: full-length
# B5: C9JEU5 (protein)
# chain: MSWSLHPRNLILYFYALLFLSSTCVAYVATRDNCCILDERFGSYCPTTCGIADFLSTYQTKVDKDLQSLEDILHQVENKTSEVKQLIKAIQLTYNPDESSKPNMIDAATLKSRKMLEEIMKYEASILTHDSSIRYLQEIYNSNNQKIVNLKEKVAQLEAQCQEPCKDTVQIHDITGKVKVDSPSLDCQDIANKGAKQSGLYFIKPLKANQQFLVYCEIDGSGNGWTVFQKRLDGSVDFKKNWIQYKEGFGHLSPTGTTEFWLGNEKIHLISTQSAIPYALRVELEDWNGRTSTADYAMFKVGPEADKYRLTYAYFAGGDAGDAFDGFDFGDDPSDKFFTSHNGMQFSTWDNDNDKFEGNCAEQDGSGWWMNKCHAGHLNGVYYQGGTYSKASTPNGYDNGIIWATWKTRWYSMKKTTMKIIPFNRLTIGEGQQHHLGGAKQAGDV
# B6: P03971 (protein, UniProt P03971 1-560, looked up)
# chain: MRDLPLTSLALVLSALGALLGTEALRAEEPAVGTSGLIFREDLDWPPGSPQEPLCLVALGGDSNGSSSPLRVVGALSAYEQAFLGAVQRARWGPRDLATFGVCNTGDRQAALPSLRRLGAWLRDPGGQRLVVLHLEEVTWEPTPSLRFQEPPPGGAGPPELALLVLYPGPGPEVTVTRAGLPGAQSLCPSRDTRYLVLAVDRPAGAWRGSGLALTLQPRGEDSRLSTARLQALLFGDDHRCFTRMTPALLLLPRSEPAPLPAHGQLDTVPFPPPRPSAELEESPPSADPFLETLTRLVRALRVPPARASAPRLALDPDALAGFPQGLVNLSDPAALERLLDGEEPLLLLLRPTAATTGDPAPLHDPTSAPWATALARRVAAELQAAAAELRSLPGLPPATAPLLARLLALCPGGPGGLGDPLRALLLLKALQGLRVEWRGRDPRGPGRAQRSAGATAADGPCALRELSVDLRAERSVLIPETYQANNCQGVCGWPQSDRNPRYGNHVVLLLKMQVRGAALARPPCCVPTAYAGKLLISLSEERISAHHVPNMVATECGCR
# modifications: full-length
# B7: Fibrinogen a: α chain of human fibrinogen (Cayman Chemical), RA autoantigen; native or citrullinated by PAD2 or PAD4 (protein)
# chain: MFSMRIVCLVLSVVGTAWTADSGEGDFLAEGGGVRGPRVVERHQSACKDSDWPFCSDEDWNYKCPSGCRMKGLIDEVNQDFTNRINKLKNSLFEYQKNNKDSHSLTTNIMEILRGDFSSANNRDNTYNRVSEDLRSRIEVLKRKVIEKVQHIQLLQKNVRAQLVDMKRLEVDIDIKIRSCRGSCSRALAREVDLKDYEDQQKQLEQVIAKDLLPSRDRQHLPLIKMKPVPDLVPGNFKSQLQKVPPEWKALTDMPQMRMELERPGGNEITRGGSTSYGTGSETESPRNPSSAGSWNSGSSGPGSTGNRNPGSSGTGGTATWKPGSSGPGSTGSWNSGSSGTGSTGNQNPGSPRPGSTGTWNPGSSERGSAGHWTSESSVSGSTGQWHSESGSFRPDSPGSGNARPNNPDWGTFEEVSGNVSPGTRREYHTEKLVTSKGDKELRTGKEKVTSGSTTTTRRSCSKTVTKTVIGPDGHKEVTKEVVTSEDGSDCPEAMDLGTL
# B8: Interferon alpha-21 (protein, UniProt P01568 24-189, looked up)
# Interferon alpha-21: CDLPQTHSLGNRRALILLAQMGRISPFSCLKDRHDFGFPQEEFDGNQFQKAQAISVLHEMIQQTFNLFSTKDSSATWEQSLLEKFSTELNQQLNDLEACVIQEVGVEETPLMNVDSILAVKKYFQRITLYLTEKKYSPCAWEVVRAEIMRSFSLSKIFQERLRRKE
# B9: Complement factor H-related protein 5 (protein, UniProt Q9BXR6 19-569, looked up)
# Complement factor H-related …: EGTLCDFPKIHHGFLYDEEDYNPFSQVPTGEVFYYSCEYNFVSPSKSFWTRITCTEEGWSPTPKCLRMCSFPFVKNGHSESSGLIHLEGDTVQIICNTGYSLQNNEKNISCVERGWSTPPICSFTKGECHVPILEANVDAQPKKESYKVGDVLKFSCRKNLIRVGSDSVQCYQFGWSPNFPTCKGQVRSCGPPPQLSNGEVKEIRKEEYGHNEVVEYDCNPNFIINGPKKIQCVDGEWTTLPTCVEQVKTCGYIPELEYGYVQPSVPPYQHGVSVEVNCRNEYAMIGNNMITCINGIWTELPMCVATHQLKRCKIAGVNIKTLLKLSGKEFNHNSRIRYRCSDIFRYRHSVCINGKWNPEVDCTEKREQFCPPPPQIPNAQNMTTTVNYQDGEKVAVLCKENYLLPEAKEIVCKDGRWQSLPRCVESTAYCGPPPSINNGDTTSFPLSVYPPGSTVTYRCQSFYKLQGSVTVTCRNKQWSEPPRCLDPCVVSEENMNKNNIQLKWRNDGKLYAKTGDAVEFQCKFPHKAMISSPPFRAICQEGKFEYPICE
# B10: Keratin, type II cuticular Hb6 (protein, UniProt O43790 1-486, looked up)
# Keratin, type II cuticular Hb6: MTCGSYCGGRAFSCISACGPRPGRCCITAAPYRGISCYRGLTGGFGSHSVCGGFRAGSCGRSFGYRSGGVCGPSPPCITTVSVNESLLTPLNLEIDPNAQCVKQEEKEQIKSLNSRFAAFIDKVRFLEQQNKLLETKLQFYQNRECCQSNLEPLFEGYIETLRREAECVEADSGRLASELNHVQEVLEGYKKKYEEEVSLRATAENEFVALKKDVDCAYLRKSDLEANVEALIQEIDFLRRLYEEEIRVLQSHISDTSVVVKLDNSRDLNMDCIIAEIKAQYDDIVTRSRAEAESWYRSKCEEMKATVIRHGETLRRTKEEINELNRMIQRLTAEVENAKCQNSKLEAAVAQSEQQGEAALSDARCKLAELEGALQKAKQDMACLIREYQEVMNSKLGLDIEIATYRRLLEGEEQRLCEGVGSVNVCVSSSRGGVVCGDLCASTTAPVVSTRVSSVPSNSNVVVGTTNACAPSARVGVCGGSCKRC
# System: PAD2 and PAD4
# Experiment: Citrullination site mapping of fibrinogen and vimentin by trypsin digestion and mass spectrometry (protein-level sheet, one search over native, PAD2-cit and PAD4-cit samples)
# Assay type: biochemical, human
# Conditions: modified residues found per protein; Deamidated [R..] = deamidated (citrullinated) arginine positions; trypsin digest, Sequest HT; not split by sample (native, PAD2-citrullinated, PAD4-citrullinated fibrinogen and vimentin)
# Excerpt: (§1) Description: Raw mass spectrometry data for proteolytic mapping of fibrinogen, vimentin, and hnRNP A2/B1 by cathepsins B, S, and H (sheets 1-6); citrullination site mapping of fibrinogen and vimentin by trypsin digestion (sheets 7-8); and the natural antigen processing assay with native, PAD2-citrullinated (PAD2-cit), and PAD4-citrullinated (PAD4-cit) fibrinogen (sheets 9-11).
row,Molecule,Modifications
1,B1,Deamidated [R123; R137; R156; R205; R212; R218; R372; R374; R383; R394; R419; R427; R441; R484; R488; R495; R536; R544; R550; R555; R609; R639; R650]
2,B2,Deamidated [R171; R343]
3,B3,Deamidated [R184]
4,B4,Deamidated [R159; R329; R331; R485; R493]
5,B5,Deamidated [R113; R134; R281; R290; R309; R409; R425]
6,B6,Deamidated [R499; R516; R522; R560]
7,B7,Deamidated [R42; R84; R114; R123; R129; R160; R216; R218; R258; R263; R271; R287; R308; R510; R512; R547; R573; R591]

# System: recombinant human PAD2 and PAD4
# Experiment: Citrullination site mapping by trypsin digestion and mass spectrometry; protein-level modifications over native, PAD2- and PAD4-citrullinated samples combined
# Assay type: biochemical
# Conditions: trypsin digest, Sequest HT search; co-identified proteins in the fibrinogen and vimentin samples (native, PAD2-cit, PAD4-cit); not split by sample or enzyme
# Excerpt: as §1
row,Molecule,Modifications (Deamidated [R...] = citrullinated arginine positions found)
1,B8,Deamidated [R56]
2,B9,Deamidated [R69]
3,B10,Deamidated [R125]

# Source: PMC9958131 (Nature Communications, 2023)
